{"source": "paper PMC7211764", "target": "wild-type A3A 1-199 (APOBEC3A) (human) (UniProt P31941)", "test": "SEC"}
{"substance": "wild-type A3A 1-199 (APOBEC3A), P31941 1-199 (enzyme; other documents disagree on this pair)", "values": [{"measurement": "stoichiometry N", "result": 2}]}
